T1: p63^Krsl protein kinase (product of the Krsl gene), endogenous in mouse NIH3T3 cytosolic lysate (S20), Q9JI10
T1 chain: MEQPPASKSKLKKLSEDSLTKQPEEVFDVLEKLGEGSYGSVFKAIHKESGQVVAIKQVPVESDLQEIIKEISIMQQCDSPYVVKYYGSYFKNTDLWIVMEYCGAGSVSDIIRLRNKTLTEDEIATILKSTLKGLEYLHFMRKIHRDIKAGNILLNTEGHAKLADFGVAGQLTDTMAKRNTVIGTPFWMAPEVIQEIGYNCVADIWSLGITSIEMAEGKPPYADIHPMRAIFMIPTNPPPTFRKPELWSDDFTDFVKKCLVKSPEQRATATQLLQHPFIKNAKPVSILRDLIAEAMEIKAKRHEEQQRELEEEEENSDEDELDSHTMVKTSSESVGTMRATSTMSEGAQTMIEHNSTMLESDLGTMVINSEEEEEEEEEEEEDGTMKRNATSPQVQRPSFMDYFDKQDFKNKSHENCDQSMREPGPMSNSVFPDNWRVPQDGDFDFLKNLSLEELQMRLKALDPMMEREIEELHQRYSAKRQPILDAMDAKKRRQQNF

B1: Recombinant human Caspase-3 (Alexis Biochemicals) (protein)
chain: SGISLDNSYKMDYPEMGLCIIINNKNFHKSTGMTSRSGTDVDAANLRETFRNLKYEVRNKNDLTREEIVELMRDVSKEDHSKRSSFVCVLLSHGEEGIIFGTNGPVDLKKITNFFRGDRCRSLTGKPKLFIIQACRGTELDCGIETDSGVDDDMACHKIPVEADFLYAYSTAPGYYSWRNSKDGSWFIQSLCAMLKQYADKLEFMHILTRVNRKVATEFESFSFDATFHAKKQIPCIVSMLTKELYFYH
B2: Lambda protein phosphatase (lambda PPase) (NE BioLabs) (protein)
chain: MRYYEKIDGSKYRNIWVVGDLHGCYTNLMNKLDTIGFDNKKDLLISVGDLVDRGAENVECLELITFPWFRAVRGNHEQMMIDGLSERGNVNHWLLNGGGWFFNLDYDKEILAKALAHKADELPLIIELVSKDKKYVICHADYPFDEYEFGKPVDHQQVIWNRERISNSQNGIVKEIKGADTFIFGHTPAVKPLKFANQMYIDTGAVFCGNLTLIQVQGEGA

How the values were obtained:
[1] = biological target: p33^QIK, quiescence induced kinase, 33-kDa Krsl-related cytoplasmic protein kinase, endogenous in mouse NIH3T3 cytosolic lysate (S20)
[2] = biological target: p35, protein kinase of 35 kDa in STSP-treated NIH3T3 cells
[3] = biological target: T1, p63^Krsl protein kinase (product of the …)

| Protein | kinase activity in Ab-KQ immune complexes after caspase-3 treatment (in-gel kinase assay, MBP substrate) [1] | kinase activity in Ab-KQ immune complexes after caspase-3 treatment (in-gel kinase assay, MBP substrate) [2] | kinase activity in Ab-KQ immune complexes after caspase-3 treatment (in-gel kinase assay, MBP substrate) [3] | kinase activity of p33^QIK in Ab-KQ immune complexes after phosphatase treatment (in-gel kinase assay, MBP substrate) [1] |
| --- | --- | --- | --- | --- |
| B1 | no change was detected in the kinase activity of p33^QIK which was isolated from osmotic-stressed quiescent cultures (FIG. 8, lanes 6 to 8) or growing cultures | both the kinase activities of p63^Krsl and p35 decreased in correlation with an increased p33^QIK activity that was completely blocked by a wide range caspase inhibitor Z-D-CH2-DCB | both the kinase activities of p63^Krsl and p35 decreased in correlation with an increased p33^QIK activity that was completely blocked by a wide range caspase inhibitor Z-D-CH2-DCB |  |
| B2 |  |  |  | A similar result was obtained by using Lambda phosphatase in the reaction |

— patent US20030170252
